Source: paper PMC11063326, “2-oxoglutarate-dependent dioxygenases and BAHD acyltransferases drive the structural diversification of orobanchol in Fabaceae plants” (Frontiers in Plant Science, 2024)

Substrate: CC1=C[C@H](O/C=C2/C(=O)O[C@@H]3[C@H]2[C@@H](O)[C@]24CCCC(C)(C)[C@]32O4)OC1=O
Assay: product formation (fabacyl acetate) by LC-MS/MS, crude recombinant enzyme
Assay type: biochemical, Lathyrus oleraceus
Settings: 200 μM acetyl-CoA, 50 mM citrate pH 6.0, 30°C
Source text: product formation (fabacyl acetate) by LC-MS/MS, crude recombinant enzyme on PsFAT (fabacol acetyltransferase, Psat7g079960)

B1: PsFAT (fabacol acetyltransferase, Psat7g079960) (Lathyrus oleraceus) (protein)
chain: MEMEIISREFIKPSSPTPPHLRNFPISFIDHITFRYYVPLLFFYNDTKVSDQKSKISHLKSSLSQILSIYYPFAGRFKDQRSIECNDQGVLFLVANITGIKLSTILENPDEKLFDHLFPDQLQWKLMEWNESILVVQINCFACGGIVISVCTCHKIIDATTAFNFVNDWSKLNREQESESKSTSASLLPYNLLYAGDTIFSLGNLPKFPEVDFAIDKTIVCKRFVFEASKIKLLKNLVNFNSHVVENPTRVEVITALIYKCVVSTLGLNFKTTSLQIAVNLRKRMIPPLSNKCVGNLVWILFVMNPELHDLVFRIRQGLSEFCEVYPKKFGGKEKDSSFICECLKQVTTRVSESDNNQSLIAYASWCKFPMYEADFGWGKPIWVTTSACPARNAVILMDTRDGDGIEVIVSMKKNDMVRFECDVELLQYASVNPSITS
notes: complete CDS from root cDNA, modified pCold III, E. coli BL21(DE3) with GroES/GroEL; crude E. coli extract
Km: 0.287 ± 0.076 µM
Vmax: 0.00745 µM/min
